Laboratory results: US20110027321

Biological target: blue casein substrate (4-16% BlueCasein zymogram gel, Novex)

B1: recombinant 6 histidine tagged C. trachomatis HtrA polypeptide (serovar L2), purified from E. coli BL21 (DE3) (pET28-CtHtrA/L2) (protein)
chain: SPMLGYSASKKDSKADICLAVSSGDQEVSQEDLLKEVSRGFSRVAAKATPGVVYIENFPKTGNQAIASPGNKRGFQENPFDYFNDEFFNRFFGLPSHREQQRPQQRDAVRGTGFIVSEDGYVVTNHHVVEDAGKIHVTLHDGQKYTAKIVGLDPKTDLAVIKIQAEKLPFLTFGNSDQLQIGDWAIAIGNPFGLQATVTVGVVSAKGRNQLHIVDFEDFIQTDAAINPGNSGGPLLNINGQVIGVNTAIVSGSGGYIGIGFAIPSLMAKRVIDQLISDGQVTRGFLGVTLQPIDSELATCYKLEKVYGALVTDVVKGSPAEKAGLRQEDVIVAYNGKEVESLSALRNAISLMMPGTRVILKIVREGKTIEIPVTVTQIPTEDGVSALQKMGVRVQNITPEICKKLGLAADTRGILVVAVEAGSPAASAGVAPGQLILAVNRQRVASVEELNQVLKNSKGENVLLMVSQGDVVRFIVLKSDHHHHHHE
protease activity in zymogram gel (zone of clearing): Recombinant C. trachomatis HtrA degradation (i.e. proteolysis) of the blue casein substrate is visualized as a zone of clearing at ˜49 kDa
